# Where a chain is given by its changes, count along the chain named.
# B1: humanized 13C6 variant h13C6a expressed in FUT8KO CHO cells (antibody)
# heavy: EVQLVESGPALVKPTQTLTLTCTFSGFSLSTSGVGVGWIRQPPGKALEWLALIWWDDDKYYNPSLKSRLTISKDTSKNQVVLTMTNMDPVDTATYYCARRDPFGYDNAMGYWGQGTLVTVSSASTKGPSVFPLAPSSKSTSGGTAALGCLVKDYFPEPVTVSWNSGALTSGVHTFPAVLQSSGLYSLSSVVTVPSSSLGTQTYICNVNHKPSNTKVDKKVEPKSCDKTHTCPPCPAPELLGGPSVFLFPPKPKDTLMISRTPEVTCVVVDVSHEDPEVKFNWYVDGVEVHNAKTKPREEQYNSTYRVVSVLTVLHQDWLNGKEYKCKVSNKALPAPIEKTISKAKGQPREPQVYTLPPSREEMTKNQVSLTCLVKGFYPSDIAVEWESNGQPENNYKTTPPVLDSDGSFFLYSKLTVDKSWQQGNVFSCSVMHEALHNHYTQKSLSLSPGK
# light: DIQMTQSPSSLSASVGDRVTITCKASQNVGTAVAWYQQKPGKAPKLLIYSASNRYTGVPSRFSGSGSGTDFTLTISSLQPEDFATYYCQQYSSYPLTFGQGTKVEIKRTVAAPSVFIFPPSDEQLKSGTASVVCLLNNFYPREAKVQWKVDNALQSGNSQESVTEQDSKDSTYSLSSTLTLSKADYEKHKVYACEVTHQGLSSPVTKSFNRGEC
# notes: copies: 2 + 2
# B2: humanized 13C6 variant h13C6i expressed in CHO cells (antibody)
# heavy: B1 heavy
# light: B1 light with A43S, Y87F
# notes: copies: 2 + 2
# B3: humanized 13C6 variant h13C6i expressed in FUT8KO CHO cells (antibody)
# heavy: B1 heavy
# light: B1 light with A43S, Y87F
# notes: copies: 2 + 2
# B4: humanized 13C6 variant h13C6a expressed in CHO cells (antibody)
# heavy: B1 heavy
# light: B1 light
# notes: copies: 2 + 2
# Legend:
# [1] = target: recombinant FcγRIIIa (V158) (R&D Systems, cat#4325-FC-050) (UniProt P08637); assay: Biacore binding to recombinant FcγRIIIa (V158), low density
# recombinant FcγRIIIa (V158) (R&D Systems, cat#4325-FC-050) (UniProt P08637), sequence (P08637 17-208 F176V limits assumed): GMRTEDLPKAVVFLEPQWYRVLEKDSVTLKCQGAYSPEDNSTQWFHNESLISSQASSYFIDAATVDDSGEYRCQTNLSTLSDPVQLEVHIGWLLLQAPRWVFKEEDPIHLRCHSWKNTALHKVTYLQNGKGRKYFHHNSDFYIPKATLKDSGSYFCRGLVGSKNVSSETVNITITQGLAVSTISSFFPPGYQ
# [2] = target: recombinant FcγRIIIa (V158) (R&D Systems, cat#4325-FC-050) (UniProt P08637); assay: Biacore binding to recombinant FcγRIIIa (V158), high density
# [3] = target: T1, recombinant FcγRIIIa (V158) (R&D Systems, cat#4325-FC-050) (UniProt P08637 17-208); assay: Biacore binding to recombinant FcγRIIIa (V158), low density
# T1 sequence (P08637 17-208 F176V limits assumed): as above
# [4] = target: T1, recombinant FcγRIIIa (V158) (R&D …); assay: Biacore binding to recombinant FcγRIIIa (V158), high density
# [5] = target: T1, recombinant FcγRIIIa (V158) (R&D …); assay: Biacore binding to recombinant FcγRIIIa
# [6] = target: T1, recombinant FcγRIIIa (V158) (R&D …); assay: Biacore, FcγRIIIa (V158) binding (summary table; equals the 9th table, row 11, column 4)
Molecule,Kd [1] [nM],Kd [2] [nM],Kd [3] [nM],Kd [4] [nM],fold improvement of binding against CHO cell expressed material [5] [fold],Kd [6] [nM]
Herceptin CHO (antibody),82,67,–,–,–,–
B1,–,–,38,27,~3,–
B2,–,–,122,111,–,–
B3,–,–,36,24,~3,24
B4,–,–,117,113,–,–

# Reference: patent US20180362620A1 (Genentech, published 2018)
